From US20130273046A1 (UNIVERSITE DE LAUSANNE, published 2013)
Numbering of substitutions follows the chain as printed.

B1: Fc-EDA1 (Fc fusion, UniProt Q92838 245-391, looked up, not shown: a dimerising Fc or GST)
chain: ENQPAVVHLQGQGSAIQVKNDLSGGVLNDWSRITMNPKVFKLHPRSGELEVLVDGTYFIYSQVEVYYINFTDFASYEVVVDEKPFLQCTRSIETGKTNYNTCYTAGVCLLKARQKIAVKMVHADISINMSKHTTFFGAIRLGEAPAS
B2: mAbEDAR5 (antibody, IgG2b, V domains shown)
VH: QVQLKQSGPGLVQPSQSLSITCTVSGFSLSNYGVHWIRQSPGKGLEWLGVIWGGGSTDYNAAFISRLSISKDNSKSQVFFKMNSLQADDTAIYYCASYYGYYDWFAYWGQGTLVTVSA
VL: EIVLTQSPTTMAASPGEKITITCSASSIISSNYLHWYQQKPGFSPKPLIYRTSNLASGVPARFSGSGSGTSYSLTIGTMEAEDVATYYCQQGSSIPRTFGSGTKLEIKR
B3: mAbEDAR6 (antibody, IgG2a, V domains shown)
VH: EVQLQQSGPELVKPGASVKMSCKASGYSFTGYNMHWVKQSHGKSLEWIGYIDPYNGATSKNQKFKGKATLTVDKSSTTAYIQLNSLTSEDSAVYYCARYYYGDYHWYFDVWGAGTTVTVSS
VL: DVVMTQTPLSLPVSLGDQASISCRSSQSLVHSNGNTYLHWYLQQPGQSPKLLIYKVSNRFSGVPDRFSGSGSGTDFTLKISRVEAEDLGVYFCSQHTHVPPTFGAGTKLELKR
B4: mAbEDAR1 (antibody, IgG1, V domains shown)
VH: EVPLEESGGGLVKPGGSRKLSCAASGFTFSDHGMHWVRQAPEKGLEWIAYISSGSSNVYYSDTVKGRFTISRDNAKNTLFLQMTSLRSEDTAMYYCARRELLRFYFDVWGAGTTVTVSS
VL: DIQMTQTTSSLSASLGDRVTISCRASQDIGNHLNWYQQKPDGTVKLLIYYTSRIHSGVPSRFSGSGSGTDYSLTISNLEQEDIATYFCQQGNTLPWTFGGGTKLEIKR
notes: also called anti-EDAR mAb mAbEDAR1
B5: mAbEDAR3 (antibody, IgG1, V domains shown)
VH: B4 VH with H32Y, I48V, N57A, V58I, S61A, N77S, L101I, F104Y
VL: B4 VL with T7S, G30S, H32N, K39R, I54S, H55Q, I83V, Q89H, N92K, W96Y
notes: also called anti-EDAR mAb mAbEDAR3

What was measured:
[1] = molecular target: EDAR-Fas fusion protein on Fas-deficient Jurkat cells (human or mouse EDAR not told apart) (human, UniProt P25445 169-335); experiment: cell-based or functional assay
[2] = molecular target: T1, mEDAR-Fas on Fas-deficient Jurkat cells (mouse; human, UniProt P25445 169-335, limits assumed); experiment: cell-based or functional assay
T1 sequence: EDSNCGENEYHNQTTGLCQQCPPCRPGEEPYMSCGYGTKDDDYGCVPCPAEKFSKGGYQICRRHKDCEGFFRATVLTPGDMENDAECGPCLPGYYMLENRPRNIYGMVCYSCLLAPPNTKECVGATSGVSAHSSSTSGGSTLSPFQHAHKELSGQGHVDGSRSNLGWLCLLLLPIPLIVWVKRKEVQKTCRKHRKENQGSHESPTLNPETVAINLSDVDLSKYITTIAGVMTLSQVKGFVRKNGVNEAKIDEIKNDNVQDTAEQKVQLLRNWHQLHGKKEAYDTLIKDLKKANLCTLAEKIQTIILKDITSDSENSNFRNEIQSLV

[3] = molecular target: T2, hEDAR-Fas on Fas-deficient Jurkat cells (human, UniProt P25445 169-335, limits assumed); experiment: cell-based or functional assay
T2 sequence: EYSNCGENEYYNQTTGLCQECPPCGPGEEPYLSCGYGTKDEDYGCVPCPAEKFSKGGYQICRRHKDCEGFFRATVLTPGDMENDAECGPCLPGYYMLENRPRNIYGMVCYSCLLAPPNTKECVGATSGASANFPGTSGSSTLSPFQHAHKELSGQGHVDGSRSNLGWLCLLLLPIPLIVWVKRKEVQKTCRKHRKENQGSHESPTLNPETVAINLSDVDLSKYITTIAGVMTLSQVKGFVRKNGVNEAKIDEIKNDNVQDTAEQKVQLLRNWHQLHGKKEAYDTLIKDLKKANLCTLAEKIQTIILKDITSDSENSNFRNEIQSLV

[4] = molecular target: T3, human Fas-Fc (human, UniProt P25445 26-170, limits assumed); experiment: Western blot, 20 ng hFas-Fc (FIG. 7B)
T3 construct: Negative control protein; also called hFas-Fc; not shown: Fc portion
T3 sequence (looked up): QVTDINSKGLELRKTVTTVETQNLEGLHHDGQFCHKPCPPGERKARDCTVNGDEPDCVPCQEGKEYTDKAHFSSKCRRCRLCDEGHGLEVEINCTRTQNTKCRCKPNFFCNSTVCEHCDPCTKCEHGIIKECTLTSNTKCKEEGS
Text: (§1) The weaker signal obtained with mouse EDAR might be explained by the lower amount of mouse EDAR-Fc loaded on the gel. Binding specificity is established by showing that none of the mAbEDARs does bind to Fas-Fc and Flag-human APRIL (while Flag-human APRIL is recognized by an anti-APRIL mAb). […] The band recognized by mAbEDAR5 in the BSA lane is probably due to a cross-contamination of EDAR-Fc in the neighboring lane.

[5] = molecular target: T4, mouse EDAR-Fc (mouse); experiment: ELISA on mouse EDAR-Fc (FIG. 9)
T4 construct: also called mouse EDAR (1-183)-Fc; soluble mouse EDAR-Fc fusion protein
Text: FIG. 9. Epitope mapping of anti-EDAR monoclonal antibodies on recombinant human EDAR by ELISA. (A) Schematic linear representation of human EDAR showing the position of cystein residues (thin horizontal lines), of the putative N-linked glycosylation site (thick horizontal line, N), of the six structural modules (rectangles with rounded corners) composing the three cystein-rich domains (CRD1, CRD2, CRD3), of the transmembrane domain (rectangle, TMD), of the signal peptide (Leader), of the stalk and of the intracellular domain (ID). Amino acid numbers at the junctions of interest are indicated. The arrow indicates the predicted cleavage site of the signal peptide. The scheme is drawn to scale, except for the intracellular domain. (B) Wells of ELISA plates were coated with goat anti-human IgG antibody, blocked, and further incubated with human EDAR-Fc, mouse EDAR-Fc or the indicated human EDAR-Fc truncation proteins in cell supernatants of transfected cells. […] Binding of mAbEDARs were monitored with horseradish peroxydase-coupled anti-mouse IgG antibody.
In order to obtain antibodies recognizing both human and mouse EDAR, a feature which would considerably facilitate pre-clinical development of drug candidates, EDAR-deficient mice were immunized with human EDAR. It was then assessed whether monoclonal antibodies generated from these mice indeed recognized EDAR from these two animal species. […]

[6] = molecular target: T5, human EDAR-Fc (human); experiment: Western blot, non-reducing, 20 ng human EDAR-Fc (FIG. 7B)
T5 construct: also called hEDAR-Fc; human EDAR (1-183)-Fc
Text: as §1

[7] = molecular target: T6, human EDAR domain I alone fused to Fc of human IgG1 (human, UniProt Q9UNE0 27-72); experiment: capture ELISA on EDAR-Fc truncation proteins
T6 construct: also called CRD1 EDAR-Fc truncation protein; not shown: Fc region of human IgG1
T6 chain: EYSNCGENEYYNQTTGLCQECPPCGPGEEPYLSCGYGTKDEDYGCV
Text: (§2) Epitope mapping of anti-EDAR monoclonal antibodies on recombinant human EDAR by ELISA. (A) Schematic linear representation of human EDAR showing the position of cystein residues (thin horizontal lines), of the putative N-linked glycosylation site (thick horizontal line, N), of the six structural modules (rectangles with rounded corners) composing the three cystein-rich domains (CRD1, CRD2, CRD3), of the transmembrane domain (rectangle, TMD), of the signal peptide (Leader), of the stalk and of the intracellular domain (ID). Amino acid numbers at the junctions of interest are indicated. The arrow indicates the predicted cleavage site of the signal peptide. The scheme is drawn to scale, except for the intracellular domain. (B) Wells of ELISA plates were coated with goat anti-human IgG antibody, blocked, and further incubated with human EDAR-Fc, mouse EDAR-Fc or the indicated human EDAR-Fc truncation proteins in cell supernatants of transfected cells. One well was also left without cell supernatant (Ctrl). The efficient capture of the various EDAR-Fc proteins was controlled using horseradish peroxydase-coupled donkey anti-human IgG antibody. Binding of mAbEDARs were monitored with horseradish peroxydase-coupled anti-mouse IgG antibody.
(§3) EDAR is a transmembrane protein whose extracellular part is composed of three membrane distal cystein-rich domains (CRDs) and of a proximal membrane stalk domain (FIG. 9A). Constructs coding for the entire EDAR protein, domains I and II, domains II and III, domain III and the stalk domain, domains I, II and III alone and the stalk domain alone were assembled with the Fc region of human IgG1, inserted into a mammalian expression vector and transiently transfected in 293T cells. […] The other fragments were not recognized, in particular the fragments made up of either domain I or II alone. mAbEDAR5, 6, 12 and 13 specifically recognized domain I, alone or together with domain II. mAbEDAR9, 14 and 15 only recognized Fc constructs containing the entire EDAR extracellular domain.

[8] = molecular target: T7, human EDAR domains I and II fused to Fc of human IgG1 (human, UniProt Q9UNE0 27-114); experiment: capture ELISA on EDAR-Fc truncation proteins
T7 construct: Tested as supernatant of transfected 293T cells; also called CRD1 and CRD2 EDAR-Fc truncation protein; fragment made up of domains I and II; not shown: Fc region of human IgG1
T7 sequence: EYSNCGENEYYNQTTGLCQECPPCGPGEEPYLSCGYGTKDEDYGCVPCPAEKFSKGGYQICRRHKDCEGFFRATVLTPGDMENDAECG
Text: as §2, §3

[9] = molecular target: T6, human EDAR domain I alone fused to Fc …; experiment: capture ELISA on EDAR-Fc truncation proteins (FIG. 9)
Text: as §2, §3

[10] = molecular target: T8, human EDAR domain II alone fused to Fc of human IgG1 (human, UniProt Q9R187 73-114 (mouse entry), limits assumed); experiment: as above
T8 construct: also called CRD2 EDAR-Fc truncation protein; not shown: Fc region of human IgG1
T8 chain: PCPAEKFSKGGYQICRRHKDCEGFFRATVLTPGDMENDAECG
Text: as §2, §3

[11] = molecular target: T9, human EDAR stalk domain alone fused to Fc of human IgG1 (human, limits assumed); experiment: as above
T9 construct: also called stalk EDAR-Fc truncation protein; not shown: Fc region of human IgG1
T9 chain: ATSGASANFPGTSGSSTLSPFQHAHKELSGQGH
Text: as §2, §3

[12] = molecular target: T10, Flag-human APRIL (human, UniProt O75888 110-250, limits assumed); experiment: Western blot (FIG. 7A)
T10 construct: Control antigen; not shown: Flag tag
T10 sequence (looked up): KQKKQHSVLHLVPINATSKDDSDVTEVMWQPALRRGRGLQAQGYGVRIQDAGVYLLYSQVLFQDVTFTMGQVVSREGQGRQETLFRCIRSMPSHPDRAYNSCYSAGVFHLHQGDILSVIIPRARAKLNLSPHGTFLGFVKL
Text: FIG. 7. Use of anti-EDAR mAb in Western blotting.
as §1

[13] = molecular target: T3, human Fas-Fc; experiment: ELISA on coated human Fas-Fc (FIG. 6C)
Description: FIG. 6. Specific binding of the anti-EDAR mAb to both mouse and human EDAR. Graded concentrations of mAbEDAR1-4 or of a control mAb (Aprily 5) were added to wells of a 96-well ELISA plate coated with 100 μl of 1 μg/ml of human EDAR-Fc, mouse EDAR-Fc, human Fas-Fc or Flag-human APRIL. […] The absorbance was measured at 490 nm.
In order to obtain antibodies recognizing both human and mouse EDAR, a feature which would considerably facilitate pre-clinical development of drug candidates, EDAR-deficient mice were immunized with human EDAR. It was then assessed whether monoclonal antibodies generated from these mice indeed recognized EDAR from these two animal species. The wells of microtiter plates were coated with soluble human and mouse EDAR-Fc fusion protein and a negative control protein (human Fas-Fc), blocked and probed with serial dilutions of anti-EDAR monoclonal antibody (mAb) mAbEDAR1, 2, 3 and 4 and a negative control mAb (Aprily 5) (FIG. 6), or with a single dose of mAbEDAR1 to 15 (FIG. 9).

Binder | EC50 (concentration of agonist inducing half maximal decrease of cell viability), EDAR-Fas Jurkat cells [1] | EC50 (concentration of agonist inducing half maximal decrease of cell viability), mEDAR-Fas Jurkat cells [2] | EC50 (concentration of agonist inducing half maximal decrease of cell viability), hEDAR-Fas Jurkat cells [3] | binding result [4] | binding result [5] | binding result [6] | binding result [7] | binding result [8] | binding result [9] | binding result [10] | binding result [11] | binding result [12] | binding result [13]
B1 | 3 to 9 ng/mL | ~1 ng/mL | ~1 ng/mL | – | – | – | – | – | – | – | – | – | –
B2 | – | – | – | no binding | binds | binds | binds | binds | – | – | – | – | –
B3 | – | – | – | no binding | binds | binds | binds | binds | – | – | – | – | –
B4 | – | – | – | – | – | – | – | binds | no binding | no binding | no binding | no binding | no binding
B5 | – | – | – | no binding | – | – | – | binds | no binding | no binding | no binding | no binding | –
